Here are results for 6 sequences from the supplement of paper PMC11246515.

The data set is described as follows: total protein half-life in vivo (active degradation + dilution); higher = more stable protein.
Setting [1] is: E. coli NCM3722 delta-clpP delta-lon delta-hslV, growth: N-lim chemostat, doubling time 6 h.
The mark [2] stands for this setting: E. coli NCM3722 delta-clpP, growth: N-lim chemostat, doubling time 6 h.
The mark [3] stands for this setting: E. coli NCM3722 delta-hslV, growth: N-lim chemostat, doubling time 6 h.
Setting [4] is: E. coli NCM3722 delta-smpB, growth: N-lim chemostat, doubling time 6 h.
Setting [5] is: wild type E. coli NCM3722, growth: C-lim chemostat, doubling time 3 h.
[6] abbreviates: wild type E. coli NCM3722, growth: C-lim chemostat, doubling time 6 h.
[7] abbreviates: wild type E. coli NCM3722, growth: C-lim chemostat, doubling time 12 h.
Where [8] appears, read: wild type E. coli NCM3722, growth: N-lim chemostat, doubling time 6 h.
Where [9] appears, read: wild type E. coli NCM3722, growth: N-lim chemostat, doubling time 12 h.
[10] abbreviates: wild type E. coli NCM3722, growth: P-lim chemostat, doubling time 6 h.
The mark [11] stands for this setting: wild type E. coli NCM3722, growth: P-lim chemostat, doubling time 12 h.
Where [12] appears, read: E. coli NCM3722 delta-lon, growth: N-lim chemostat, doubling time 6 h.

± gives the standard deviation of the averaged measurements.

For “MKPLHYTASALALGLALMGNAQAVTTIPFWHSMEGELGKEVDSLAQRFNAENPDYKIVPTYKGNYEQNLSAGIAAFRTGNAPAILQVYEVGTATMMASKAIKPVYDVFKEAGIQFDESQFVPTVSGYYSDSKTGHLLSQPFNSSTPVLYYNKDAFKKAGLDPEQPPKTWQDLADYAAKLKASGMKCGYASGWQGWIQLENFSAWNGLPFASKNNGFDGTDAVLEFNKPEQVKHIAMLEEMNKKGDFSYVGRKDESTEKFYNGDCAMTTASSGSLANIREYAKFNYGVGMMPYDADAKDAPQNAIIGGASLWVMQGKDKETYTGVAKFLDFLAKPENAAEWHQKTGYLPITKAAYDLTREQGFYEKNPGADTATRQMLNKPPLPFTKGLRLGNMPQIRVIVDEELESVWTGKKTPQQALDTAVERGNQLLRRFEKSTKS [P0AG80]”, the “total protein half-life in vivo” value came to 4.8 ± 0.06 h under setting [1]; 5.43 ± 0.54 h under setting [2]; 7.41 ± 0.31 h under setting [3]; 6.14 ± 0.2 h under setting [4]; 3.37 ± 0.17 h under setting [5]; 6.26 ± 0.076 h under setting [6]. In addition, the “total protein half-life in vivo” value is, setting by setting: under setting [7], 12.9 ± 0.73 h; under setting [8], 6.47 ± 0.47 h; under setting [9], 12.7 ± 0.98 h; under setting [10], 6.14 ± 0.21 h; under setting [11], 12.99 ± 0.1 h.

Consider “MSKIIATLYAVMDKRPLRALSFVMALLLAGCMFWDPSRFAAKTSELEIWHGLLLMWAVCAGVIHGVGFRPQKVLWQGIFCPLLADIVLIVGLIFFFF [P0AAV0]”, for which the “total protein half-life in vivo” value under setting [12] was determined as 5.39 h.

In the case of “MAHIVTLNTPSREDWLTQLADVVTDPDELLRLLNIDAEEKLLAGRSAKKLFALRVPRSFIDRMEKGNPDDPLLRQVLTSQDEFVIAPGFSTDPLEEQHSVVPGLLHKYHNRALLLVKGGCAVNCRYCFRRHFPYAENQGNKRNWQTALEYVAAHPELDEMIFSGGDPLMAKDHELDWLLTQLEAIPHIKRLRIHSRLPIVIPARITEALVECFARSTLQILLVNHINHANEVDETFRQAMAKLRRVGVTLLNQSVLLRDVNDNAQTLANLSNALFDAGVMPYYLHVLDKVQGAAHFMVSDDEARQIMRELLTLVSGYLVPKLAREIGGEPSKTPLDLQLRQQ”, the “total protein half-life in vivo” value reads like this: under setting [1], 5.05 ± 0.77 h; under setting [2], 2.63 ± 0.045 h; under setting [3], 1.02 ± 0.14 h; under setting [12], 1.61 ± 0.14 h; under setting [4], 1.33 h; under setting [5], 1.41 ± 0.071 h. Moreover, the “total protein half-life in vivo” value runs as follows: under setting [6], 1.57 ± 0.15 h; under setting [7], 3.35 ± 1.6 h; under setting [8], 1.58 ± 0.58 h; under setting [9], 2.05 h; under setting [10], 1.51 ± 0.33 h; under setting [11], 2.71 ± 0.88 h.

Consider “MRYIVALTGGIGSGKSTVANAFADLGINVIDADIIARQVVEPGAPALHAIADHFGANMIAADGTLQRRALRERIFANPEEKNWLNALLHPLIQQETQHQIQQATSPYVLWVVPLLVENSLYKKANRVLVVDVSPETQLKRTMQRDDVTREHVEQILAAQATREARLAVADDVIDNNGAPDAIASDVARLHAHYLQLASQFVSQEKP [P0A6I9]”, for which the “total protein half-life in vivo” value under setting [1] amounted to 4.61 ± 0.82 h; the “total protein half-life in vivo” value under setting [2] came out at 4.08 ± 0.2 h; the “total protein half-life in vivo” value under setting [3] came to 4.04 ± 0.14 h; the “total protein half-life in vivo” value under setting [12] is 4.32 ± 0.1 h; the “total protein half-life in vivo” value under setting [4] was 4.78 ± 0.96 h; the “total protein half-life in vivo” value under setting [5] amounted to 3.06 ± 0.28 h. Besides, the “total protein half-life in vivo” value under setting [6] was determined as 4.83 ± 0.92 h; the “total protein half-life in vivo” value under setting [7] is 9.87 ± 0.29 h; the “total protein half-life in vivo” value under setting [8] stood at 4.18 ± 0.04 h; the “total protein half-life in vivo” value under setting [9] turned out to be 6.95 ± 0.2 h; the “total protein half-life in vivo” value under setting [10] worked out at 5.34 ± 0.12 h; the “total protein half-life in vivo” value under setting [11] was 11.1 ± 0.22 h.

With “MNIKIAALTLAIASGISAQWAIAADMPASPAPTIPVKQYVTQVNADNSVTFRYFAPGAKNVSVVVGVPVPDNIHPMTKDEAGVWSWRTPILKGNLYEYFFNVDGVRSIDTGTAMTNPQRQVNSSMILVPGSYLDTRSVAHGDLIAITYHSNALQSERQMYVWTPPGYTGMGEPLPVLYFYHGFGDTGRSAIDQGRIPQIMDNLLAEGKIKPMLVVIPDTETDAKGIIPEDFVPQERRKVFYPLNAKAADRELMNDIIPLISKRFNVRKDADGRALAGLSQGGYQALVSGMNHLESFGWLATFSGVTTTTVPDEGVAARLNDPAAINQQLRNFTVVVGDKDVVTGKDIAGLKTELEQKKINFDYQEYPGLNHEMDVWRPAYAAFVQKLFK”, the “total protein half-life in vivo” value is 4.45 h under setting [1] and 3.45 ± 0.76 h under setting [4].

For the sequence “MNLQRFDDSTLIRIFALHELHRLKEHGLTRGALLDYHSRYKLVFLAHSQPEYRKLGPFVADIHQWQNLDDYYNQYRQRVVVLLSHPANPRDHTNVLMHVQGYFRPHIDSTERQQLAALIDSYRRGEQPLLAPLMRIKHYMALYPDAWLSGQRYFELWPRVINLRHSGVL”, the “total protein half-life in vivo” value reads like this: under setting [1], 5.09 ± 0.47 h; under setting [2], 4.66 ± 0.34 h; under setting [3], 4.914 ± 0.015 h; under setting [12], 5.47 ± 0.14 h; under setting [4], 4.55 ± 0.27 h; under setting [6], 5.12 h. For the same sequence, the “total protein half-life in vivo” value reads like this: under setting [7], 11.2 h; under setting [8], 4.54 ± 0.59 h; under setting [9], 7.5 ± 0.48 h; under setting [10], 5.11 ± 0.081 h; under setting [11], 12 ± 0.13 h.
